Key:
CsHMGΔC = CsHMGΔC (Citrus sinensis, UniProt G9I829 1-125); experiment: EMSA; conditions: protein: recombinant; label: 5' 32P
CsHMGΔN = CsHMGΔN (Citrus sinensis, UniProt G9I829 56-165); experiment: EMSA; conditions: protein: recombinant; label: 5' 32P
CsHMGΔNΔC [1] = target: T1, CsHMGΔNΔC (Citrus sinensis, UniProt G9I829 56-125); experiment: EMSA; conditions: protein: recombinant; label: 5' 32P
CsHMG [2] = target: T2, CsHMG (Citrus sinensis, UniProt G9I829 1-165); experiment: competition; 1-30x cold poly(U); conditions: protein: recombinant; tags: 6xHis; label: 5' 32P
PthA4 RD = PthA4 RD (Xanthomonas citri, UniProt A0AAI8ETU3 289-885); experiment: EMSA; 5 mM Mg2+; […], pH 7.5 ([…], pH 7.5, 20 min; conditions: protein: recombinant; label: 5' 32P
PthA4 = PthA4 (Xanthomonas citri, UniProt A0AAI8ETU3 1-1163); experiment: EMSA; 5 mM Mg2+; […], pH 7.5 ([…], pH 7.5, 20 min; conditions: protein: recombinant; tags: 6xHis; label: 5' 32P
PthA4;CsHMG = PthA4;CsHMG (Xanthomonas citri;Citrus sinensis, UniProt A0AAI8ETU3;G9I829 1-1163;1-165, |); experiment: EMSA; ternary complex suggested by higher MW bands; […], pH 7.5 ([…], pH 7.5, 20 min; conditions: protein: recombinant;recombinant; tags: 6xHis;6xHis; label: 5' 32P
CsHMG [3] = target: T2, CsHMG; experiment: EMSA; 0.5 and 1.0 ug protein; conditions: protein: recombinant; tags: 6xHis; label: 5' 32P (direct EMSA)
CsHMGΔNΔC [4] = target: T1, CsHMGΔNΔC; experiment: competition; 1-30x vs poly(U) probe; conditions: protein: recombinant; label: 5' 32P (direct EMSA)

T1 sequence (G9I829 entry or part of it mutant): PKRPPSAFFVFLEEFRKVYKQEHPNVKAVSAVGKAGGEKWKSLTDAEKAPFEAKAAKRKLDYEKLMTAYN
CsHMGΔC, sequence (G9I829 entry or part of it mutant): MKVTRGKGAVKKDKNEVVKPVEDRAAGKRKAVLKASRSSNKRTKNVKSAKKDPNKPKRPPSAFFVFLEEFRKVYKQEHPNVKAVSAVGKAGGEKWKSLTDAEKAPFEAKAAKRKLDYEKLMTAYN
CsHMGΔN, sequence (G9I829 entry or part of it mutant): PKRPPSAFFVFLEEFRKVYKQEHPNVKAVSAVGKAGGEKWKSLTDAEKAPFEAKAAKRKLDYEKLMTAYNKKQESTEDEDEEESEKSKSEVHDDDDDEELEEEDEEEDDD

UUUUUUUUUUUUUUUUUUUU (ssRNA) [poly(U) U-20]
binding result (CsHMGΔC): binds
binding result (CsHMGΔN): binds
binding result (CsHMGΔNΔC [1]): binds
binding result (CsHMG [2]): binds
binding result (PthA4 RD): binds
binding result (PthA4): binds
binding result (PthA4;CsHMG): binds

UUAUUAUUUAUUUAUUUAUU (ssRNA) [AU-rich RNA]
binding result (CsHMG [3]): no binding
binding result (CsHMGΔNΔC [4]): no binding

— PMC3285215, “The TAL Effector PthA4 Interacts with Nuclear Factors Involved in RNA-Dependent Processes Including a HMG Protein That Selectively Binds Poly(U) RNA”
